Source: patent US6635450 (FRED HUTCHINSON CANCER RESEARCH CENTER, dated 2003)

Molecular target: Cdk2 alone (baculoviral HA-tagged Cdk2 immunoadsorbed to sepharose beads) (UniProt P24941 1-298)
Experiment: depletion of the Cdk2 inhibitor from Mv1Lu cell extracts on Cdk2 sepharose beads, read by cyclin E-associated H1 kinase activity
Experimental: Cyclin E-Cdk2 sepharose was prepared by mixing 1.2 µl of Sf9 cell lysate containing Hemagglutinin tagged Cdk2 (Cdk2 -HA) with 12 µl lysate containing cyclin E in buffer A (30 mM HEPES-KCH pH 7.5, 7.5 mM MgCl_2, 1 mM DTT) containing 10 mM ATP and incubated at room temperature for 30 minutes to allow complete formation. The assembly reaction was then adjusted to 250 mM NaCl and 0.5% NP40. The Cdk2-HA containing complexes were immunoprecipitated with the 12CA5 monoclonal antibody (BABCO) and collected on protein A-sepharose. Cdk2 sepharose was prepared in an identical manner except cyclin E was omitted. Immunoprecipitates were washed twice with NP40 RIPA buffer ([…], 250 mM NaCl, 10 mM EDTA, 20 mM Tris-HCl pH 7.4) and four times with buffer A. The matrix was divided into 4 aliquots and incubated with 100 µg of cell extract in buffer A containing 3 mM ATP, 20 µg/ml creatine phosphokinase, 40 mM phospho-creatine for 45 minutes at 37° C. After incubation the supernatant was collected and assayed for Cdk2 activation by addition of recombinant cyclin E as described below. A critical parameter in the execution of this experiment is to ensure that no cyclin, Cdk or complex leaks from the beads into the cell extract. This is unpredictable and must be checked by immunoblotting each time the experiment is performed.

B1: p27 protein, the 27 kD cyclin E-Cdk2 binding protein of Mv1Lu mink epithelial cells (endogenous) (other)
chain: MSNVRVSNGSPSLERMDARQAEYPKPSACRNLFGPVNHEELTRDLEKHRRDMEEASQRKWNFDFQNHKPLEGKYEWQEVEKGSLPEFYYRPPRPPKGACKVPAQESQDVSGTRQAVPLMGSQANSEDTHLVDQKTDTADNQAGLAEQCTGIRKRPATDDSSPQNKRANRTEENVSDGS
notes: also called p27^Kip1; Kip1
- binding result: no binding
